Measurements from patent publication US20150175710A1 (published 2015).

Key:
Assay in all cases: ELISA
6B11 = target: 6B11
17G10 = target: 17G10
12D9 = target: 12D9

Kd (6B11): 3.04 nM
Kd (17G10): 33.9 nM
Kd (12D9): 0.39 nM
B1: mouse ENO1 (receptor)
chain: MSILRIHAREIFDSRGNPTVEVDLYTAKGLFRAAVPSGASTGIYEALELRDNDKTRFMGKGVSQAVEHINKTIAPALVSKKVNVVEQEKIDKLMIEMDGTENKSKFGANAILGVSLAVCKAGAVEKGVPLYRHIADLAGNPEVILPVPAFNVINGGSHAGNKLAMQEFMILPVGASSFREAMRIGAEVYHNLKNVIKEKYGKDATNVGDEGGFAPNILENKEALELLKTAIAKAGYTDQVVIGMDVAASEFYRSGKYDLDFKSPDDPSRYITPDQLADLYKSFVQNYPVVSIEDPFDQDDWGAWQKFTASAGIQVVGDDLTVTNPKRIAKAASEKSCNCLLLKVNQIGSVTESLQACKLAQSNGWGVMVSHRSGETEDTFIADLVVGLCTGQIKTGAPCRSERLAKYNQILRIEEELGSKAKFAGRSFRNPLAK
